Changes are numbered by the printed parent chain.
T1: rhesus CD19 on cells (CD20+ B cells of rhesus PBMC) (rhesus, UniProt F7F486 20-557)
T1 construct: also called Rhesus CD20+
T1 sequence: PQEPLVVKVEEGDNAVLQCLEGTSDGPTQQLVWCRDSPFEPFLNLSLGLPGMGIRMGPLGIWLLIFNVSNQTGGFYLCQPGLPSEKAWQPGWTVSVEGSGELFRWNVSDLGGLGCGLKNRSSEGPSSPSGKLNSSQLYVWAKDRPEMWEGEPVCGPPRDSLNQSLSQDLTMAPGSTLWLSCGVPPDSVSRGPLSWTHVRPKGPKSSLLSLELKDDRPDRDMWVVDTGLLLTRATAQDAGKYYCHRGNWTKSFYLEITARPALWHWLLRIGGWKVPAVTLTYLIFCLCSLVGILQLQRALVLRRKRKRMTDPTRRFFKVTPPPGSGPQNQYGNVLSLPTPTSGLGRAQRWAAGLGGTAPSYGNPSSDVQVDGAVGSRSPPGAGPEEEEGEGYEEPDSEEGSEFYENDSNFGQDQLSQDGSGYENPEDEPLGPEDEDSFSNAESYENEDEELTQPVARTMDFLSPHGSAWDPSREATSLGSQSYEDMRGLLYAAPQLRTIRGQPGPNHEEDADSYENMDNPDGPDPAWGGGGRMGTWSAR

T2: human CD19 protein (R&D Biosystems Cat #9269-CD-050) (human, UniProt P15391 20-291)
T2 sequence (looked up): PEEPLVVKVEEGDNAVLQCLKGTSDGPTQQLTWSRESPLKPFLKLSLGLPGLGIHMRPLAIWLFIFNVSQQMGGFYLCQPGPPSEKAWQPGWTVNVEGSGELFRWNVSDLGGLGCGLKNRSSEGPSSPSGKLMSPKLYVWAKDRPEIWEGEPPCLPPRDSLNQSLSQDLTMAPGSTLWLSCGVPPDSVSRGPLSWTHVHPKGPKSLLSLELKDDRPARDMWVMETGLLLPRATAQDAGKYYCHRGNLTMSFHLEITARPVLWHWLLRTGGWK

T3: human CD19 on cells (CD20+ B cells of human PBMC; Raji lymphoma cells) (human, UniProt P15391 20-556)
T3 construct: whole, on cells; also called Human CD20+
T3 sequence (looked up): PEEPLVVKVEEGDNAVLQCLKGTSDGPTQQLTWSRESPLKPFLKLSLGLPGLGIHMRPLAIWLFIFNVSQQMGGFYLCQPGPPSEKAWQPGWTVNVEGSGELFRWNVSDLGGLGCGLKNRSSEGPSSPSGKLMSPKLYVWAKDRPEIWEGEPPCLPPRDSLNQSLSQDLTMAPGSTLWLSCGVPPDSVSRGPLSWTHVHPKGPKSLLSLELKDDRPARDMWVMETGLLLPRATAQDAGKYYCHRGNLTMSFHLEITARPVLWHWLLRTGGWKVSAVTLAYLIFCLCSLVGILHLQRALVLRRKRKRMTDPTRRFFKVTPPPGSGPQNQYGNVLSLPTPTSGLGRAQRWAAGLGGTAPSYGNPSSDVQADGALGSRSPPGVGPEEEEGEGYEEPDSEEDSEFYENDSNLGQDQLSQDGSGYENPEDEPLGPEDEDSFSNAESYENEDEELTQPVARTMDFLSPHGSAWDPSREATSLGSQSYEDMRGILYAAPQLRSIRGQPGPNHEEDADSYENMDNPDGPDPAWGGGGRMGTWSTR

T4: His-tagged human CD19 (human, UniProt P15391 20-291, limits assumed)
T4 construct: not shown: His tag
T4 sequence (looked up): T2 sequence (looked up)

B1: SI-63C1 (recombinant chimeric mAb with BU12 mouse parental anti-CD19 variable sequence) (antibody, V domains shown)
VH: QVTLKESGPGILQPSQTLSLTCSFSGFSLSTSGMGVGWIRQPSGKGLEWLAHIWWDDDKRYNPALKSRLTISKDTSSNQVFLKIASVDTADTAAYYCARMELWSYYFDYWGQGTTLTVSS
VL: ENVLTQSPAIMSASPGEKVTMTCSASSSVSYMHWYQQKSSTSPKLWIYDTSKLASGVPGRFSGSGSGNSHFLTISSMEAEDVATYYCFQGSVYPFTFGSGTKLEIKR
notes: Mouse BU12 variable regions on human kappa and human IgG CH1-Fc; also called BU12-chimeric; SI-63C1-AF647
B2: SI-63SF6 (H5 scFv-monoFc fusion protein) (Fc fusion)
chain: EIVMTQSPSTLSASVGDRVIITCSASSSVSYMHWYQQKPGKAPKLLIYDTSKLASGVPSRFSGSGSGAEFTLTISSLQPDDFATYYCFQGSVYPFTFGQGTKLTVLGGGGSGGGGSGGGGSGGGGSEVQLVESGGGLVQPGGSLRLSCVFSGFSLSTSGMGVGWVRQAPGKGLEWVGHIWWDDDKRYNPALKSRFTISRDTSKNTVYLQMNSLRAEDTAVYYCARMELWSYYFDYWGQGTLVTVSSGSSGSGSGSTGLVPRGSTSSSGTGTSAGTPVAGPSVFLFPPKPKDTLMISRTPEVTCVVVDVSHEDPEVKFNWYVDGVEVHNAKTKPREEQYASTYRVVSVLTVLHQDWLNGKEYKCKVSNKALPAPIEKTISKAKGQPREPQVYTLPPSRDELTKNQVSLRCHVKGFYPSDIAVEWESNGQPENNYKTTKPVLDSDGSFFLYSTLTVDKSRWQQGNVFSCSVLHEALHNHYTQKSLSLSPGKGSGLNDIFEAQKIEWHE
notes: The entry is the whole scFv-monoFc chain; also called Humanized version 5 ScFv monoFc
B3: SI-63SF7 (H6 scFv-monoFc fusion protein) (Fc fusion)
chain: B2 chain with V149S
notes: The entry is the whole scFv-monoFc chain; also called Humanized version 6 ScFv mono Fc
B4: SI-34C1 (recombinant mAb with 21D4 human anti-CD19 variable sequence) (antibody, human IgG1, kappa, V domains shown)
VH: EVQLVQSGAEVKKPGESLKISCKGSGYSFSSSWIGWVRQAPGKGLEWMGIIYPDDSDTRYSPSFQGQVTISADKSIRTAYLQWSSLKASDTAMYYCARHVTMIWGVIIDFWGQGTLVTVSS
VL: AIQLTQSPSSLSASVGDRVTITCRASQGISSALAWYQQKPGKAPKLLIYDASSLESGVPSRFSGSGSGTDFTLTISSLQPEDFATYYCQQFNSYPFTFGPGTKVDIKR
notes: also called human anti-CD19 antibody (21D4)
B5: SI-63R1 (humanized anti-CD19 H1 scFv-His-tagged protein) (scFv)
scFv: ENVLTQSPASLSASPGERVTITCSASSSVSYMHWYQQKPGQAPKLWIYDTSKLASGVPSRFSGSGSGNDHTLTISSMEPEDFATYYCFQGSVYPFTFGQGTKLEIKGGGGSGGGGSGGGGSGGGGSQVTLKESGPGLVQPGQTLRLTCAFSGFSLSTSGMGVGWIRQPPGKGLEWLAHIWWDDDKRYNPALKSRLTISKDTSKNQVYLQMNSLDAEDTAVYYCARMELWSYYFDYWGQGTLVTVSSGSHHHHHH
notes: also called SI-63R1(H1)
B6: SI-63C2 (recombinant mAb with H1 humanized anti-CD19 variable sequence) (antibody, V domains shown)
VH: QVTLKESGPGLVQPGQTLRLTCAFSGFSLSTSGMGVGWIRQPPGKGLEWLAHIWWDDDKRYNPALKSRLTISKDTSKNQVYLQMNSLDAEDTAVYYCARMELWSYYFDYWGQGTLVTVSS
VL: ENVLTQSPASLSASPGERVTITCSASSSVSYMHWYQQKPGQAPKLWIYDTSKLASGVPSRFSGSGSGNDHTLTISSMEPEDFATYYCFQGSVYPFTFGQGTKLEIKR
notes: H1 VH/VL on human kappa and human IgG CH1-Fc; also called SI-huCD19; humanized BU12, H1
B7: SI-63SF4 (H3 scFv-monoFc fusion protein) (Fc fusion)
chain: ENVLTQSPASLSASPGERVTITCSASSSVSYMHWYQQKPGQAPKLWIYDTSKLASGVPSRFSGSGSGNDHTLTISSMEPEDFATYYCFQGSVYPFTFGQGTKLTVLGGGGSGGGGSGGGGSGGGGSQVTLKESGPGLVQPGQTLRLTCAFSGFSLSTSGMGVGWIRQPPGKGLEWLAHIWWDDDKRYNPALKSRLTISKDTSKNQVYLQMNSLDAEDTAVYYCARMELWSYYFDYWGQGTLVTVSSGGSSGSGSGSTGLVPRGSTSSSGTGTSAGTPVAGPSVFLFPPKPKDTLMISRTPEVTCVVVDVSHEDPEVKFNWYVDGVEVHNAKTKPREEQYASTYRVVSVLTVLHQDWLNGKEYKCKVSNKALPAPIEKTISKAKGQPREPQVYTLPPSRDELTKNQVSLRCHVKGFYPSDIAVEWESNGQPENNYKTTKPVLDSDGSFFLYSTLTVDKSRWQQGNVFSCSVLHEALHNHYTQKSLSLSPGKGSGLNDIFEAQKIEWHE
notes: The entry is the whole scFv-monoFc chain; also called Humanized version 3 ScFv monoFc
B8: SI-63SF2 (H2 scFv-monoFc fusion protein) (Fc fusion)
chain: B7 chain with L103I, V105I
notes: The entry is the whole scFv-monoFc chain; also called Humanized version 2 ScFv monoFc
B9: SI-63SF5 (H4 scFv-monoFc fusion protein) (Fc fusion)
chain: B7 chain with L103V
notes: The entry is the whole scFv-monoFc chain; also called Humanized version 4 ScFv monoFc
B10: SI-63SF1 (H1 scFv-monoFc fusion protein) (Fc fusion)
chain: B7 chain with T104E, V105I, L106K
notes: The entry is the whole scFv-monoFc chain; also called Humanized version 1 ScFv monoFc

Columns and labels:
[1] = biological target: T1, rhesus CD19 on cells (CD20+ B cells of …); test: flow cytometry, dose response on rhesus CD20+ lymphocytes
Experimental: (§1) To determine if the humanization alters the cross reactivity, the flow cytometry was carried out. The SI-63C2 antibody was used to bind the peripheral blood mononuclear cells derived from human, cynomolgus, and rhesus, respectively. Lymphocytes were gated based on forward and side scatter, followed by single cells based on the ratio of forward scatter signal height and area. Viable CD20+ B-cell and CD20− lymphocytes are gated based on the exclusion of membrane permeable amine reactive dye and the binding level of CD20 antibody (clone 2H7, Biolegend). Binding of the labelled antibody was determined as the geometric mean fluorescence intensity (gMFI) of the cell population for the fluorescent conjugate's emission channel. As shown in the histogram analysis in FIG. 4, the SI-63C2 antibody binds to CD20+ B cells from human, cynomolgus, and rhesus (4A) but not to their CD20− lymphocytes (4B).

[2] = biological target: T5, cynomolgus CD19 on cells (CD20+ B cells of cynomolgus PBMC) (cynomolgus); test: flow cytometry, dose response on cynomolgus CD20+ lymphocytes
T5 construct: whole, on cells; also called Cynomolgus CD20+
Experimental: as §1

[3] = biological target: T2, human CD19 protein (R&D Biosystems Cat …); test: BLI (Octet), antibody on anti-human Fc biosensor, human CD19 as analyte
Experimental: (§2) The purified SI-63C1, SI-63C2, and SI-34C1 antibodies were tested for their binding affinity using biolayer interferometry (ForteBio OctetRED 384). The antibodies were bound to anti-human Fc biosensors, and human CD19 protein (R&D Biosystems Cat #9269-CD-050) was used as the analyte in a 4-point series of 2-fold dilutions with the highest concentration starting at 200 nM.

[4] = biological target: T3, human CD19 on cells (CD20+ B cells of …); test: flow cytometry, dose response on human CD20+ lymphocytes
Experimental: as §1

[5] = biological target: T4, His-tagged human CD19; test: BLI (Octet), scFv-monoFc on AHC sensor, His-tagged human CD19 as analyte, global 1:1 fit
Excerpt: To further screen and compare all humanized peptides, the DNA sequences encoding humanized CD19 binding variants (H1, H2, H3, H4, H5 and H6) were configured to a scFv-monoFc format and cloned (Dimitrov et al. 2012.) (SEQ ID NO. 55,57,59,61,63,65). […] They were given names as SI-63SF1(H1), SI-63SF2(H2), SI-63SF4(H3), SI-63SF5(H4), SI-63SF6(H5), and SI-63SF7(H6). Following the expression and purification processes, all six proteins were characterized for their physical characters, including yields (titer), purity (% HMW and aSEC), binding affinity (KD, Kon, and Kdis) to human CD19, and thermal stability. For Octet assay, the scFv-monoFc fusion proteins were loaded via AHC sensors at 10 ug/ml and bound to a serial dilution of His-tagged human CD19 (1:2.5 dilutions starting from the highest concentration of 200 nM), and the resulting global fit to a 1:1 binding model. For the DLS analysis, the temperature was ramped from 25° C. to 75° C. at 0.5° C./min while the radius of the scFv-monoFc fusion proteins (at 1 mg/ml) was monitored by a Wyatt DynaPro Plate Reader III.

[6] = biological target: T2, human CD19 protein (R&D Biosystems Cat …); test: BLI (Octet); human CD19
Experimental: as §2

[7] = biological target: T4, His-tagged human CD19; test: BLI (Octet), scFv-His coupled covalently to AR2G sensor, His-tagged human CD19 as analyte
Experimental: To assess the binding affinity of SI-63R1, Octet binding assay was used. The SI-63R1 protein was loaded via covalent coupling onto AR2G sensors at 10 ug/ml and bound to a serial dilution of His-tagged human CD19 (1:2.5 dilutions from the highest concentration of 200 nM).

[8] = biological target: T2, human CD19 protein (R&D Biosystems Cat …); test: BLI (Octet), antibody on anti-human Fc biosensors, CD19 protein as analyte; human CD19
Experimental: as §2

[9] = biological target: T3, human CD19 on cells (CD20+ B cells of …); test: flow cytometry, dose response on human CD20+ lymphocytes; human CD20+ lymphocytes
Experimental: as §1

| Binder | Kd [3] [nM] | koff [3] [s⁻¹] | kon [3] [M⁻¹ s⁻¹] | Kd [5] [nM] | koff [5] [s⁻¹] | further results |
| --- | --- | --- | --- | --- | --- | --- |
| B1 | 3.06 | 0.000209 | 68100 |  |  | EC50 [1]: 0.991 µg/mL; EC50 [2]: 0.909 µg/mL; EC50 [4]: 0.231 µg/mL |
| B2 |  |  |  | 5.68 | 0.000339 | kon [5]: 59700 M⁻¹ s⁻¹ |
| B3 |  |  |  | 5.37 | 0.000377 | kon [5]: 70200 M⁻¹ s⁻¹ |
| B4 | 1.56 | 0.000101 | 64400 |  |  | Kd [6]: 2.1 nM |
| B5 |  |  |  |  |  | Kd [7]: 1.83 nM; koff [7]: 9.15e-05 s⁻¹ |
| B6 | 3.77 | 0.000229 | 60800 |  |  | EC50 [1]: 0.666 µg/mL; EC50 [2]: 2.9 µg/mL; Kd [8]: 3.8 nM; EC50 [9]: 0.0397 µg/mL |
| B7 |  |  |  | 4.18 | 0.00191 |  |
| B8 |  |  |  | 4.22 | 0.00181 |  |
| B9 |  |  |  | 5.02 | 0.00187 |  |
| B10 |  |  |  | 6.89 | 0.000184 |  |

Source: US20230086069A1 (SYSTIMMUNE, published 2023)
